Reference: patent US20250304677A1 (VIB VZW, published 2025)

Experiments:
[1] = target: T1, mouse folate receptor alpha (mFRα), recombinant protein (mouse, UniProt P35846 25-232); assay: BLI, Avi-biotinylated FRα
T1 construct: Bought recombinant proteins (e.g. biotinylated, Acro Biosystems FO1-M82E9); also called mFOLR1; Ms FOLR1
Protocol: (§1) Purified VHHs ^{∘}100 nM) were analysed for binding to avi-tagged biotinylated FRα protein captured on streptavidin-biosensors via BLI.
(§2) Off-rates of purified variants were determined to human, mouse, and cynomolgus FRα in BLI. In addition, binding of the affinity optimised variants to cell-expressed human FRα on HeLa cells was determined by flow cytometry ^{∘}FIG. 10 B).

[2] = target: T2, human folate receptor alpha (hFRα), recombinant protein (human, UniProt P15328 25-233); assay: BLI, Avi-biotinylated FRα
T2 construct: Bought recombinant proteins (His-tagged, or biotinylated via Avi-tag, e.g. AcroBiosystems FO1-H82E2, F01-H52H1); also called hFOLR1; huFOLR1
T2 sequence (P15328 25-233 limits assumed): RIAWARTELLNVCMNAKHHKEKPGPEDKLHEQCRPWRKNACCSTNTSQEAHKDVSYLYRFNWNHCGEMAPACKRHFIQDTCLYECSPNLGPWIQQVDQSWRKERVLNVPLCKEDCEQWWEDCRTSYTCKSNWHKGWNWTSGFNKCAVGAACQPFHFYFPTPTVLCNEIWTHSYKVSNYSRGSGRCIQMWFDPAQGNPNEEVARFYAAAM
Protocol: as §1, §2

[3] = target: T1, mouse folate receptor alpha (mFRα), …; assay: BLI
How it was run: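 Biolayer interferometry was used to measure off-rates, with biotinylated human and mouse folate receptor alpha immobilised on streptavidin biosensors, and koff was calculated from the data. The fit used a 1:1 binding model. Each variant's fold change is taken against its own wild-type VHH: wild-type koff divided by variant koff when the variant's off-rate is better, and the negative of variant koff divided by wild-type koff when it is worse.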

[4] = target: T1, mouse folate receptor alpha (mFRα), …; assay: BLI, purified VHH
How it was run: (§3)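 Off-rates to folate receptor alpha from human, mouse and cynomolgus were measured by biolayer interferometry. The VHH proteins tested were made with a flag3-His6 tag in TG-1 E. coli at 0.5 L scale and isolated from the periplasm on Ni Sepharose FastFlow columns.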

[5] = target: T3, cynomolgus folate receptor alpha, recombinant (cynomolgus, UniProt A0A2K5U044 25-233); assay: BLI, purified VHH
T3 construct: also called cyFOLR1; cynomolgus FRα
T3 sequence (A0A2K5U044 entry or part of it): as the sequence (P15328 25-233 limits assumed) above, with I2T, W4R, R37K, A146P, H171Y counted along it
How it was run: as §3

[6] = target: T2, human folate receptor alpha (hFRα), …; assay: BLI, purified VHH
How it was run: as §3

[7] = target: T4, human folate receptor alpha expressed on cells (transfected HEK293T, HeLa, MCF7, MDA-MB-231) (human, UniProt P15328 25-234); assay: flow cytometry on HeLa cells, anti-Flag detection
T4 construct: HEK293T transiently transfected with human FOLR1; also called native human FRα; cell-expressed human FOLR1
T4 sequence (P15328 25-234 limits assumed): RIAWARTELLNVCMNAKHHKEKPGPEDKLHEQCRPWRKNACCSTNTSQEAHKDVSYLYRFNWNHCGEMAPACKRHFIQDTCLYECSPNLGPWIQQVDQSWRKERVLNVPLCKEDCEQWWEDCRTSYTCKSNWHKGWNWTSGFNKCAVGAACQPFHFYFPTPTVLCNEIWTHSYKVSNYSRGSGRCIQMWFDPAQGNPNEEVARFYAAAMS
Protocol: EC₅₀ values are found in Table 9. Detection of VHH cell binding was done through anti-Flag M2 mIgG1 followed by anti-mFc-PE in flow cytometry. Results are depicted as mean fluorescence intensity ^{∘}MFI).
as §2

T1 sequence (P35846 25-232 limits assumed): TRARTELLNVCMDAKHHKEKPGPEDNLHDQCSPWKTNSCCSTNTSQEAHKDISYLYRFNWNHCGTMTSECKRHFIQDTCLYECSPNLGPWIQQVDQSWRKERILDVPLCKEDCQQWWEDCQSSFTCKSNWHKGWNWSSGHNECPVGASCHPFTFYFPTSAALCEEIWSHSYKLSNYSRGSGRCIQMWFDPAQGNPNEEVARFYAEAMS

Binder | koff [1] [s⁻¹] | koff [2] [s⁻¹] | koff [3] [s⁻¹] | nm (Fold wt) [3] | koff [4] [s⁻¹] | koff [5] [s⁻¹] | koff [6] [s⁻¹] | EC50 [7] [nM] | MFI top [7] [MFI]
P01500019: 2HF09(Q1E, Q5V, A14P, G26E, G28P, I51V, G54H, D72E, N73G, L79Y, K83R, Q108L)-HIS6 (VHH, Entry includes the tag; also called P0150019; P01500001[G26E, G28P, D72E, N73G]) VHH: EVQLVESGGGLVQPGGSLRLSCAASESPFSGMIMGWYRQAPGKQRELVATVTSHGTTNYADSVKGRFTISREGAKNTVYLQMNSLRPEDTAVYYCNAHFPGIYWGKGTLVTVSS | 8.33e-05 | 0.000206 | – | – | – | – | – | – | –
P01500041: P01500001(D72P, N73G)-FLAG3-HIS6 (VHH, also called P0150041) VHH: EVQLVESGGGLVQPGGSLRLSCAASGSGFSGMIMGWYRQAPGKQRELVATVTSHGTTNYADSVKGRFTISRPGAKNTVYLQMNSLRPEDTAVYYCNAHFPGIYWGKGTLVTVSS | 0.000191 | 0.00113 | – | – | 0.00014 | 0.00014 | 0.00094 | 4.2 | 63000
P01500042: P01500001(G28T, S30I)-FLAG3-HIS6 (VHH, also called P0150042) VHH: EVQLVESGGGLVQPGGSLRLSCAASGSTFIGMIMGWYRQAPGKQRELVATVTSHGTTNYADSVKGRFTISRDNAKNTVYLQMNSLRPEDTAVYYCNAHFPGIYWGKGTLVTVSS | 0.00038 | 0.00338 | – | – | 0.00038 | 0.00038 | 0.00274 | 5.19 | 54700
P01500043: P01500001(G28T, I33L, D72E)-FLAG3-HIS6 (VHH, also called P0150043) VHH: EVQLVESGGGLVQPGGSLRLSCAASGSTFSGMLMGWYRQAPGKQRELVATVTSHGTTNYADSVKGRFTISRENAKNTVYLQMNSLRPEDTAVYYCNAHFPGIYWGKGTLVTVSS | 0.000114 | 0.000639 | – | – | 0.000114 | 0.000428 | 0.000534 | 2.4 | 60200

Now from value to binder:

koff [1] [s⁻¹] | koff [2] [s⁻¹] | koff [3] [s⁻¹] | nm (Fold wt) [3] | koff [4] [s⁻¹] | koff [5] [s⁻¹] | koff [6] [s⁻¹] | EC50 [7] [nM] | MFI top [7] [MFI] | Binder
– | – | 0.0975 | 60 | – | – | – | – | – | P01500083: P0150001 with A24V, S27L, M32I, N76D (VHH) VHH: EVQLVESGGGLVQPGGSLRLSCAVSGLGFSGIIMGWYRQAPGKQRELVATVTSHGTTNYADSVKGRFTISRDNAKDTVYLQMNSLRPEDTAVYYCNAHFPGIYWGKGTLVTVSS
– | – | 0.0618 | 38 | – | – | – | – | – | P01500082: P0150001 with A24V, S27L, M32I (VHH) VHH: EVQLVESGGGLVQPGGSLRLSCAVSGLGFSGIIMGWYRQAPGKQRELVATVTSHGTTNYADSVKGRFTISRDNAKNTVYLQMNSLRPEDTAVYYCNAHFPGIYWGKGTLVTVSS
0.000484 | 0.00285 | – | – | 0.000484 | 0.00369 | 0.00318 | – | – | P01500058: P01500001(G26E, G28P)-FLAG3-HIS6 (VHH, also called P0150058) VHH: EVQLVESGGGLVQPGGSLRLSCAASESPFSGMIMGWYRQAPGKQRELVATVTSHGTTNYADSVKGRFTISRDNAKNTVYLQMNSLRPEDTAVYYCNAHFPGIYWGKGTLVTVSS
0.000292 | 0.0019 | – | – | 0.000333 | 0.000292 | 0.00204 | – | – | P01500059: P01500001(G26E, D72E)-FLAG3-HIS6 (VHH, also called P0150059) VHH: EVQLVESGGGLVQPGGSLRLSCAASESGFSGMIMGWYRQAPGKQRELVATVTSHGTTNYADSVKGRFTISRENAKNTVYLQMNSLRPEDTAVYYCNAHFPGIYWGKGTLVTVSS
0.00036 | 0.00187 | – | – | 0.00036 | 0.00036 | 0.00157 | 4.71 | 58900 | P01500045: P01500001(G26E, I33L)-FLAG3-HIS6 (VHH, also called P0150045) VHH: EVQLVESGGGLVQPGGSLRLSCAASESGFSGMLMGWYRQAPGKQRELVATVTSHGTTNYADSVKGRFTISRDNAKNTVYLQMNSLRPEDTAVYYCNAHFPGIYWGKGTLVTVSS
0.000126 | 0.000555 | – | – | 0.000126 | 0.000737 | 0.000464 | 3.29 | 64100 | P01500044: P01500001(S30I, D72E, N73G)-FLAG3-HIS6 (VHH, also called P0150044) VHH: EVQLVESGGGLVQPGGSLRLSCAASGSGFIGMIMGWYRQAPGKQRELVATVTSHGTTNYADSVKGRFTISREGAKNTVYLQMNSLRPEDTAVYYCNAHFPGIYWGKGTLVTVSS
